The assay concerns the target recombinant protein carbonic anhydrase 12 (R&D Systems) (Homo sapiens (Human), UniProt O43570 25-291, limits assumed).

Chain of recombinant protein carbonic anhydrase 12 (R&D Systems) (O43570 25-291 limits assumed): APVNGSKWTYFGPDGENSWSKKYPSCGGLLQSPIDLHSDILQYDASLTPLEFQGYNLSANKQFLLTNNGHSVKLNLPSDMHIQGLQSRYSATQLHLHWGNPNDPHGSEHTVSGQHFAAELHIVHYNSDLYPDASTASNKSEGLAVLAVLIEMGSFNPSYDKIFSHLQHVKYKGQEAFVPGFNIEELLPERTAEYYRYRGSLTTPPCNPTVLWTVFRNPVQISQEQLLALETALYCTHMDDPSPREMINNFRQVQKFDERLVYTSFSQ

B1: clone ID 1 (phage displayed scFv) (scFv)
chain: EVQLVESGGGLVQPGGSLRLSCAASGYSYTDYNIYWVRQAPGKGLEWVGYIDPANGDTTYNQKFKGRATISVDKSKNTAYLQMNSLRAEDTAVYYCSRPIYYGAYWYFDVWGQGTLVTVSSDIQMTQSPSSLSASVGDRVTITCRASSPVTYMHWYQQKPGKAPKPWIYATSSLAPGVPSRFSGSGSGTDFTLTISSLQPEDFATYYCQQWSSNPLTFGQGTKVEIK
In the case of B1, the “ELISA signal relative to the 4B4 chimeric antibody” value came out at 1.5 times.

The record behind these values is patent publication US20190276557A1 (APROGEN KIC, published 2019).
